Laboratory results from article PMC6482012.

Molecular target: p62 (SQSTM1) (UniProt Q13501)
Test: GST pulldown after in vitro AMPK reaction
Settings: reference: WT GST-KHK-A without AMPK; sites S80

KHK-A (fructokinase A, ketohexokinase A) (from UniProt P50053-2) WT GST-KHK-A incubated with active AMPK
binding against the reference: stronger
